Where a chain is given by its changes, count along the chain named. Numbers in names are those of the source. No end group written: not given here. TMR = tetramethyl rhodamine dye
T1: Rb^P K462E (human, UniProt P06400 380-788, K462E)
T1 construct: also called variant 8
T1 sequence (looked up): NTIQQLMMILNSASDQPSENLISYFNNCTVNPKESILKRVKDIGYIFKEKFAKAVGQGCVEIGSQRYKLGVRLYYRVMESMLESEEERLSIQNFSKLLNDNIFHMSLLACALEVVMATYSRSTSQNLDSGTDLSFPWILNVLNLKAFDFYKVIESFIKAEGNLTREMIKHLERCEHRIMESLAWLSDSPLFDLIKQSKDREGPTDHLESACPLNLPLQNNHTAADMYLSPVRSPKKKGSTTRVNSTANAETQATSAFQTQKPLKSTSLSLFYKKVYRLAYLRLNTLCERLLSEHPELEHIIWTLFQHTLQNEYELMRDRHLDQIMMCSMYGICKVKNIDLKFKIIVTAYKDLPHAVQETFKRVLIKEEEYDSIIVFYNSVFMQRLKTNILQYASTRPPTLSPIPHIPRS

T2: Rb^P Q444R (human, UniProt P06400 380-788, Q444R)
T2 construct: also called variant 4
T2 sequence (looked up): T1 sequence (looked up) with Q65R, E83K

T3: Rb^P A490S (human, UniProt P06400 380-788, A490S)
T3 construct: also called variant 15
T3 sequence (looked up): T1 sequence (looked up) with E83K, A111S

T4: Rb^P D584Y (human, UniProt P06400 380-788, D584Y)
T4 construct: also called variant 32
T4 sequence (looked up): T1 sequence (looked up) with E83K, D205Y

T5: Rb^P R763T (human, UniProt P06400 380-788, R763T)
T5 construct: also called variant 75
T5 sequence (looked up): T1 sequence (looked up) with E83K, R384T

B1: TMR-E2F1^TD, peptide of the E2F1 transactivation domain (peptide)
peptide: {TMR}-GEGIRDLFDCDFGDLTPLD
notes: also called E2F^TD; source: synthetic peptide, bought: GenScript
B2: TMR-E7^LxCxE, LxCxE peptide of the E7 oncoprotein from HPV (peptide)
peptide: DLYCYEQLN
modifications: also: TMR label, position not given here
notes: source: synthetic peptide, bought: GenScript

Assays:
Assay in all cases: fluorescence polarisation; 37 °C, after the 25 °C reading ramped over 7 min to 37 °C and 2 min incubation; unlabeled Rb^P against 1.5 nM TMR-E2F1^TD or 7.5 nM TMR-E7^LxCxE; 25 mM Tris pH 8.0, 200 mM NaCl, 1 mM DTT, 0.1% Tween-20; apparent Kd
Conditions in all cases: both partners purified
Rb^P K462E = target: T1, Rb^P K462E
Rb^P Q444R = target: T2, Rb^P Q444R
Rb^P A490S = target: T3, Rb^P A490S
Rb^P D584Y = target: T4, Rb^P D584Y
Rb^P R763T = target: T5, Rb^P R763T

| Binder | Kd (Rb^P K462E) | Kd (Rb^P Q444R) | Kd (Rb^P A490S) | Kd (Rb^P D584Y) | Kd (Rb^P R763T) |
| --- | --- | --- | --- | --- | --- |
| B1 | 67 nM | 25 nM | 29 nM | 51 nM | 59 nM |
| B2 | 32 nM | 17 nM | 15 nM | 20 nM | 35 nM |
